One experiment addresses T1, ER-α (Homo sapiens, UniProt P03372).
T1 sequence (P03372 1-595): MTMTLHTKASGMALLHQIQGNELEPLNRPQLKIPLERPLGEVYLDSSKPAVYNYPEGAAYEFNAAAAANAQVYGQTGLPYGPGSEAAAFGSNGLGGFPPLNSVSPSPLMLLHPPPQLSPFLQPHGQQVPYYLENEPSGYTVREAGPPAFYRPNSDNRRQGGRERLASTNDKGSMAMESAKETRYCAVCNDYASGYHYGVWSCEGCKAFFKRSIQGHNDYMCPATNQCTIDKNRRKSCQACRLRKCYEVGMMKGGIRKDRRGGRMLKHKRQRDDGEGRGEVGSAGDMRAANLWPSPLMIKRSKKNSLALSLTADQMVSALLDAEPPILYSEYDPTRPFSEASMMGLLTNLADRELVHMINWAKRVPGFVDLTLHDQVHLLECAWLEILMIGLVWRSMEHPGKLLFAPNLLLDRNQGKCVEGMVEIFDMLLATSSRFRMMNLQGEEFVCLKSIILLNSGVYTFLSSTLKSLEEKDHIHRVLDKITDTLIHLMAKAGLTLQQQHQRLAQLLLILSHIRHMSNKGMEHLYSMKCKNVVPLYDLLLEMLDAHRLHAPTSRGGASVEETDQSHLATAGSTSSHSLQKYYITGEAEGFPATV
Briefly: ER-α transactivation reporter assay (ERE-Luc) with SV. Format: cell-based. How it is done: 42. […] (A) The interaction of SV with AR, GR, PPAR-γ and ER-α is tested in mammalian two-hybrid assay. One μg plasmids expressing Gal4(DBD)-AR, GR, PPAR-γ or ER-α was co-transfected with 4 μg plasmids expressing VP16 or VP16-SVn to COS-1 cells. […] The assay method was the same as described in FIG. 29. Relative activities of ligand treatment to EtOH treatment are shown. (B) The coactivation function of SV in different receptors was assayed using reporter gene study. MMTV-Luc, PPRE-Luc, ERE-Luc are the reporter genes for AR, GR, PPAR-γ, and ER-α respectively. Lanes 1, 5, 9 and 13 are regarded as 1 fold in each panel.
475. In AR transactivation activity assays, transfections were performed using SuperFect (Qiagen, Chatsworth, Calif.) following protocols described in manual provided by Qiagen. Briefly, cells were plated on 35 mm dishes and after 24 h were transfected using the SuperFect kit. The total DNA amount was adjusted to 2 μg with pSG5 or pEGFP vectors. The medium was changed to DMEM with 10% CD-FBS 2 h after transfection. After 24 h, the DMEM with 10% CD-FBS was changed again, and the cells were treated with various steroids. Cells were harvested after 24 h for dual-luciferase assay as described in protocol provided by Promega. At least three independent experiments were carried out in each case.

For experiment [1], the target named is T2, AR N-terminus and AR C-terminus (Homo sapiens, UniProt P10275).
T2 construct: AR DBD plus LBD (GST-AR-DL); expressed in transfected cells; host or cells: PC-3 cells (human prostate cancer line)
T2 sequence (P10275 555-920 limits assumed): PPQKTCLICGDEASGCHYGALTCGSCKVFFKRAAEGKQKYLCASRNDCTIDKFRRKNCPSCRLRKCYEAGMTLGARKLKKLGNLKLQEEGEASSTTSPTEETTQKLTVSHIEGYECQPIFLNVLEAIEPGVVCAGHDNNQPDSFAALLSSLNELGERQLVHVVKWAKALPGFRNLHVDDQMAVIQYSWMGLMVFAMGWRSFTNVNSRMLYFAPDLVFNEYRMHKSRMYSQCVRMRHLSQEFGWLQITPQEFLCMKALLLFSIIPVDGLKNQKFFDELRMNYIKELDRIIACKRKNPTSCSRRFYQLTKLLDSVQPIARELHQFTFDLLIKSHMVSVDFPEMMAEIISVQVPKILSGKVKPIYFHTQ
T2 sequence (P10275 1-559 partner limits assumed): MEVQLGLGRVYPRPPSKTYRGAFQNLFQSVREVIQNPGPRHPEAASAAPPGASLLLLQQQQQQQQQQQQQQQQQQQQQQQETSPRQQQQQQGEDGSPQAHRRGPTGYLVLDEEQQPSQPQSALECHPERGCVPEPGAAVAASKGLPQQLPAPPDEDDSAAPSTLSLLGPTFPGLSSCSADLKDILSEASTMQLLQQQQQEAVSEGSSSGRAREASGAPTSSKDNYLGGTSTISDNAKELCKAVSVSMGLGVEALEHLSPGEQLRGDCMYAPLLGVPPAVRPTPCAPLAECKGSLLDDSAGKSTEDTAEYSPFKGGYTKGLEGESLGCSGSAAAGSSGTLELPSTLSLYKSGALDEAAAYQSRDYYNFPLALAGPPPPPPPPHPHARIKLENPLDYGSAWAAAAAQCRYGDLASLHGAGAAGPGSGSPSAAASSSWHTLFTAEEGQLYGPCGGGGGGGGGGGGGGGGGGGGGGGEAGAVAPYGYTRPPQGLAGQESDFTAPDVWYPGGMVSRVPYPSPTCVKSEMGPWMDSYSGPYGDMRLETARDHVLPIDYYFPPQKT
Briefly: Mammalian two-hybrid assay of AR N-C interaction in PC-3 cells. Format: cell-based. As to conditions: DHT. How it is done: 44. […] PC-3 cells were transfected with 30 ng plasmids expressing Gal4(DBD)-AR-DL, VP16 or VP16-ARN combined with 1.5 μg pSG5, pSG5-bSV, -ARA55, or -SRC-1α as indicated. The reporter plasmid pG5-Luc (0.5 μg) and control plasmid pRL-Luc (1 ng) were transfected to every sample. The assay was carried out as described in FIG. 29C.
474. Mouse myoblast cell line (C2C12), human prostate cancer cell lines (PC-3 and DU145), and monkey kidney fibroblast cell line (COS-1) were maintained in Dulbecco's minimum essential medium (DMEM) containing penicillin (25 units/ml), streptomycin ([…]), and 10% fetal bovine serum (FBS). In mammalian two-hybrid assay, transfections were performed using the calcium phosphate precipitation method as described previously (15). Briefly, 1.5-3×10^5 cells were plated on 35-mm dishes for 24 h, and the medium was changed to DMEM containing 10% charcol-dextran stripped FBS (CD-FBS) 2 h before transfection. Cells were transfected with 0.5 μg plasmids expressing Gal4(DBD) and VP-16 fusion proteins as indicated. Gal4 response element controlled Firefly luciferase expression plasmid, pG5-Luc, was used as reporter gene. A Renilla luciferase expression plasmid pRL-SV40 was used as an internal control for transfection efficiency. The total amount of DNA was adjusted to 5 μg with pCMX-VP16 vectors. […]

Consider “SV: supervillin, 205 kDa actin binding protein; bovine SV (a.a. 1-1792) used in reporter assays”, for which the “effect on the transactivation of ER-α” value with ER-α is listed as “little effect”. In experiment [1], the “effect on AR N-C interaction” value is recorded as “mild suppressive effect”.

Source of the values: patent US20060270591A1, “Androgen receptor coregulators” (priority 2002, published 2006).
